# Results from patent publication US20180333477A1.
# Target: RSV line 19 F protein with I557V, as expressed by vaccine candidate OE4 (respiratory syncytial virus strain line 19) (UniProt P12568)
# Assay: MPE8 binding to virus stocks kept at 4 C over 8 days
substance,measurement,value
Pre-F-specific mAb MPE8 (antibody),pre-F antigen level (MPE8 binding) relative to A2,> 2 fold
